Experimental data: US7378098
Where no end group is shown, it is not given here.

Biological target: T1, CXC chemokine receptor 4 (CXCR4) (UniProt P61073 1-352, limits assumed)
T1 construct: whole, on cells; Both are human cell lines; also called CXCR4 receptor; SDF-1 receptor
Test: competition with 4 nM 125I-SDF-1 on CEM cells (FIG. 2C)
Protocol: The results are expressed as percentages of the maximal specific binding that was determined without competing ligand, and are the mean of three independent experiments.

T1 sequence (P61073 whole entry): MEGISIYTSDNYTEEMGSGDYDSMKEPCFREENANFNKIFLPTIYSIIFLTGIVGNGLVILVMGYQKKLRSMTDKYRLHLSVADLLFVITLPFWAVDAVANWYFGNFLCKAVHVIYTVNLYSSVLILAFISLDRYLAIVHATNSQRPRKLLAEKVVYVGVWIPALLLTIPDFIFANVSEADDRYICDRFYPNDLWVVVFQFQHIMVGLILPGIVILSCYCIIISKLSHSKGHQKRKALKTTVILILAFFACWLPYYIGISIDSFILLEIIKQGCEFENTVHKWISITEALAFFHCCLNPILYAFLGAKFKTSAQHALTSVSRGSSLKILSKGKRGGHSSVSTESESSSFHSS

- binding result: binds
B1: SDF-1(1-8)2-lysine bridge dimer (CTCE9904) (peptide)
peptide 1: KPVSLSYRK-NH2
peptide 2: KPVSLSYR
modifications: also: dimer: two KPVSLSYR chains bridged through alpha and epsilon amino groups of one lysinamide, lactam at chain A 9 at chain B 8 to a chain's C-terminus
notes: It is not known whether the bridging lysine is part of either listing entry; also called SDF-1 (1-8)2-lysine dimer
